Test results taken from patent US20050187155A1 (NESTEC S A, published 2005).

T1: MMP-7
T1 sequence (P09237 95-267, species assumed, looked up): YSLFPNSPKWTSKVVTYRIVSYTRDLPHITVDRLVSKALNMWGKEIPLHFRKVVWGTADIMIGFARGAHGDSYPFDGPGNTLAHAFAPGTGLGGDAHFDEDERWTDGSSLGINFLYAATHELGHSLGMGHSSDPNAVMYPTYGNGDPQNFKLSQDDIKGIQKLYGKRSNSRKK


target: MMP-9; test: cell-based or functional assay

Binder	IC50 for the inhibition of MMPs using a fluorescein conjugated gelatin [µM]
VENLHLPLPLL [VENLHLPLPLL (SEQ ID NO:18)]	300
FVAPFPEVFG [FVAPFPEVFG (SEQ ID NO:23)]	400
ENLLRFFVAPFPEVFG [ENLLRFFVAPFPEVFG (SEQ ID NO:22)]	150
ENLHLPLPLL [ENLHLPLPLL (SEQ ID NO:19)]	300
LNENLLRFFVAPFPEVFG [LNENLLRFFVAPFPEVFG (SEQ ID NO:20)]	150
NENLLRFFVAPFPEVFG [NENLLRFFVAPFPEVFG (SEQ ID NO:21)]	50
NLHLPLPLL [NLHLPLPLL (SEQ ID NO:12)]	600

target: MMP-2; test: cell-based or functional assay

Binder	IC50 for the inhibition of MMPs using a fluorescein conjugated gelatin [µM]
VENLHLPLPLL [VENLHLPLPLL (SEQ ID NO:18)]	150
FVAPFPEVFG [FVAPFPEVFG (SEQ ID NO:23)]	500
ENLLRFFVAPFPEVFG [ENLLRFFVAPFPEVFG (SEQ ID NO:22)]	425
ENLHLPLPLL [ENLHLPLPLL (SEQ ID NO:19)]	200
LNENLLRFFVAPFPEVFG [LNENLLRFFVAPFPEVFG (SEQ ID NO:20)]	250
NENLLRFFVAPFPEVFG [NENLLRFFVAPFPEVFG (SEQ ID NO:21)]	275
NLHLPLPLL [NLHLPLPLL (SEQ ID NO:12)]	450

target: T1, MMP-7; test: cell-based or functional assay

Binder	IC50 for the inhibition of MMPs using a fluorescein conjugated gelatin [µM]
VENLHLPLPLL [VENLHLPLPLL (SEQ ID NO:18)]	250
FVAPFPEVFG [FVAPFPEVFG (SEQ ID NO:23)]	300
ENLLRFFVAPFPEVFG [ENLLRFFVAPFPEVFG (SEQ ID NO:22)]	1000
ENLHLPLPLL [ENLHLPLPLL (SEQ ID NO:19)]	275
LNENLLRFFVAPFPEVFG [LNENLLRFFVAPFPEVFG (SEQ ID NO:20)]	300
NENLLRFFVAPFPEVFG [NENLLRFFVAPFPEVFG (SEQ ID NO:21)]	850
NLHLPLPLL [NLHLPLPLL (SEQ ID NO:12)]	1200

target: angiotensin-converting enzyme (ACE); test: cell-based or functional assay

Binder	IC50 for the inhibition of ACE using the substrate FAPGG [µM]
VENLHLPLPLL [VENLHLPLPLL (SEQ ID NO:18)]	175
FVAPFPEVFG [FVAPFPEVFG (SEQ ID NO:23)]	650
ENLLRFFVAPFPEVFG [ENLLRFFVAPFPEVFG (SEQ ID NO:22)]	250
ENLHLPLPLL [ENLHLPLPLL (SEQ ID NO:19)]	250
LNENLLRFFVAPFPEVFG [LNENLLRFFVAPFPEVFG (SEQ ID NO:20)]	280
NENLLRFFVAPFPEVFG [NENLLRFFVAPFPEVFG (SEQ ID NO:21)]	55
NLHLPLPLL [NLHLPLPLL (SEQ ID NO:12)]	15
